Assay results taken from the DeepSol protein solubility set.

Assay: soluble on expression in E. coli; label from the status in PepcDB or PDB records

Sequence | soluble on expression in E. coli
MAHHHHHHMKSHNLDLIKNQNFDKNHNFINYSELYKKYKEKYNVKSFNKLPVSTYTYPRYSKITNFDELKTELIYEKEINEIEEEYDDDDEQNNINNYDGNIEILFPMINEKENEDIKKKKTDNIYKSEKKSLRQRIYDGEVMFYEDYIEQLAVKDYEHFFKKPYEIKRKDEGGKNYFYGKKLEMNKEEDIYRKFYGFDDAYFLNKLQLKNKSPQKEKNKEEKQKKRNEEKILERQCGKKLSYEDKKFILNIIEENQLQDNSIYKYYMQNKCIFDKNLPEFKKKELLCGYIPDIILPANVRKVKHPKNCGVPLSSLHIYAQFIHELFKCPYIYNAIDVELGKYWKTNENELLNIMKSEKIKKGYKKDIYTATKEQLEKSSAKLKNLLKNDEVSDDTRKKFTINFKMPKKEKTNLVVSKGRYII | soluble
MFRLSALYRYPIKSSAAESLERVALDALGVVGDRRWMAVDTETGRFFTQRLLPQLGRIQARWAAPEVLRLNAPGMSELSLEVPAADANLRGVTVWRDTLQAPDAGDAAADWLTRFLGRP | not soluble
MSNIERRHTIMAKGSVRKKGKKWYYRFYVEDASGNLVQKECVGTESKSETEKLLRQAMDDYEKKKFVAKAENLTVGQLLDVWAEEELKTSTLSNGTVENYLGTIRNIKKHPLAERKLKNVTSEHLQSFFDLLSFGGVHPDGKEKKGYSKDYIHSFSAVMQQSFRFAVFPKQYITFNPMQYIKLRYQTDEVDLFSDEDMDGNIQPISREDYERLLAYLQKKNPAAILPIQIAYYAGLRIGEACGLAWQDVNLEEQCLTIRRSIRYDGSKRKYIIGPTKRKKVRVVDFGDTLVEIFRNARKEQLKNRMQYGELYHTNYYKEVKEKNRVYYEYYCLDRTEEVPADYKEISFVCLRPDGCLELPTTLGTVCRKVAKTLEGFEGFHFHQLRHTYTSNLLANGAAPKDVQELLGHSDVSTTMNVYAHSTRDAKRKSVRLLDKVVGND | not soluble
MAHHHHHHMGTLEAGQQGPGSMSKLTVVASPLAPEAVGAYSQAIICNGMVYCSGQIGLDRKTGDFAGKTIEEQSKQVMTNLKYVLEEAGSSMDKVVKTTCLLADIKDFGVFNGIYAEAFGNHKPARACFAAAALPKGALVEVECIATL | soluble
MGSDKIHHHHHHMLNKVLTHLDENIEKSLERLFSLLRFQSISTDFAYKDECRKAADWLVEDLKSIGFKASRRDTSGHPMVVGHHPGPSDDCLHVLFYGHYDVQPVDPLNLWEDDPFTPSLKEREGEKVICARGASDDKGQLMTFIEACRAFKKETGQLPVRVTVLFEGEEESGSSSLVPFLKANKDELKADCALVCDTSMWDADTPSVSVALRGILGEEIIITAANRDLHSGYFGGAAANPIRILTKVLAGLHDENNRVTLPGFYDGVEETPPHILQSWNALNCTAENFLGPIGLSLPAGEKGRSVLELVWARPTAEINGISGGYEGEGIKTVIASQASAKVSFRLVHKQDPEKIRQAFRDYVCSLIPADCSVVFKEHGASPAIQLPYDSPFIKTAKDALSQEWNNPALLTVMGGSIPIVADFQSILDMETLLVGFALADDRIHSPNEKYNLKSFHKGQRSWARILATLAKTGG | not soluble
MGRTTTPRDGDAALPPEYHGLHVAPVQPGHEAIEWLTPTNRSDRVRVVQHTCECRTTIYELCRSGGLMFIRRTVRTAKGARVHETERLITARMERLWMRLLLGQAR | not soluble
MKIKTRFAPSPTGYLHVGGARTALYSWLFARNHGGEFVLRIEDTDLERSTPEAIEAIMDGMNWLSLEWDEGPYYQTKRFDRYNAVIDQMLEEGTAYKCYCSKERLEALREEQMAKGEKPRYDGRCRHSHEHHADDEPCVVRFANPQEGSVVFDDQIRGPIEFSNQELDDLIIRRTDGSPTYNFCVVVDDWDMEITHVIRGEDHINNTPRQINILKALKAPVPVYAHVSMINGDDGKKLSKRHGAVSVMQYRDDGYLPEALLNYLVRLGWSHGDQEIFTREEMIKYFTLNAVSKSASAFNTDKLLWLNHHYINALPPEYVATHLQWHIEQENIDTRNGPQLADLVKLLGERCKTLKEMAQSCRYFYEDFAEFDADAAKKHLRPVARQPLEVVRDKLAAITDWTAENVHHAIQATADELEVGMGKVGMPLRVAVTGAGQSPALDVTVHAIGKTRSIERINKALDFIAERENQQ | soluble
MPNYLENVKDAAAIIASARRIMVVGCSGGGKSTLSQKLAAAFGLRYISMDRDIFWLPGWQLRPREEQRQRIAAVVTEDRWLMDGSNPSSFDLRLPRTDIVLWVRMPRWLCLWGAVSRIVKGYGKARPEMAAGCPERIDLDFLRYIWNFERRHTPVFEESFALHGPNVPIFQLKSRKQIRRLLDLLVVEDLEHHHHHH | soluble
MEGMKGAVLITGASRGIGEATARLLHAKGYRVGLMARDEKRLQALAAELEGALPLPGDVREEGDWARAVAAMEEAFGELSALVNNAGVGVMKPVHELTLEEWRLVLDTNLTGAFLGIRHAVPALLRRGGGTIVNVGSLAGKNPFKGGAAYNASKFGLLGLAGAAMLDLREANVRVVNVLPGSVDTGFAGNTPGQAWKLKPEDVAQAVLFALEMPGHAMVSEIELRPTRPTSGPR | soluble
MGSDKIHHHHHHMTTTIQALEKHLQVRLLNRTTRKISLTPDGAVYYDRTARILADVADIESSFHDAERGPRGQLRIDVPVSIGRLILIPRLRDFHARYPDIDLVIGLNDRPVDLVGEAVDCAIRVGELKDSSLIARRIGTFQCATAASPIYLEKYGEPTSIEDLQKNHKAIHFFSSRTGRNFDWDFVVDDLIKSVSVRGRVSVNDGDAYIDLALQGFGIIQGPRYMLTNHLESGLLKEVLPQWTPAPMPISAVYLQNRHLSLKVKVFVDWVAELFAGCPLLGGTALPFDQKCEFACDKETGHEYTIRTLVEQHNIAEAYTLKT | not soluble
MGSDKIHHHHHHMHIAIASGKGGTGKTTLAVNLAVHAARSGHPTVLADCDVEEPNAHLFMPGEPVMTLTHSLPVPAVDKAKCLGDSCRKCVEECRFKALTWMKGVMAFSELCHGCGLCMMICPSGAITETTRPVGTVEIRTPQLPVPAGASAGAAALTLVSGRMRISEAMAPPLIREVKQQAHAVSAGTPNGLTFWDSPPGTSCPMISTVENADYSVLVTEPTPFGLHDLRLAVETLHTLGRPFGVVINRDGMGDGRVREYLDRHRIPLLGTVPHSPQAAQAVSSGRLLIDAVDGMTGCFDRLLHTVLRHAHNAAQHGQEKTA | not soluble
GAMAPSTIWHCFLKGTRLCFHKESNKEWQDVEDFARAASCDNEEEIQMGTHKGYGSDGLKLLSHEESVSFGESVLKLTFDPGTVEDGLLTVECKLDHPFYVKNKGWSSFYPSLTVVQHGIPCCEIHIGDVCLPPGHPDAINF | soluble
GNFTYAHSEFLKYEEPAYNEKYRSHIGQSLNQWYGLIAERLFIDEYDVQNSPKQTFGEYGAGDIKYRDVNGDGQITDADMVPLGYPTVPEIVYGFGFSFGNQRFDISAFFQGSARSSFWIDAKATSPFQHINPTDDDPYHQDIPLLKAYANDHWSESNRNLYAMWPRLSTTVIENNVRTSSWFMRNGAFLRLKTLEVGYTLPESWTKKAYISSARVYCSGNNLLLLSGFKLWDIEMGGSGLGYPIQRVINLGVQINF | not soluble
MGSDKIHHHHHHMMFESHSQIISAAEELLTKRYGGSQSLTDWDRLAGSGAAVVLRARVASSPFFPNRSVVVKYIPPTGRLIDESTLMREVVSYQFTTSLNADVRPGPVLLAYDVEQHLLVISDSGDGDTFAELLERHENDVRIGILRNLGEAIGKLHVGTAAKEQDFNILLHRMLVKHPEVQPMHGFRERLLRLNIGVGITLVEQAGITVPDVVKSFAQEAMRRLVTGQHRAFTPFDLSPDNIIVADRTEFLDYEWAGFRDAAFDVASVIAGFPQYLFARPVSDAEADIFIESWVQQVGDMWPNVRNTPRLHARILTALIGWAFSSVTMMYLGSSSEAYEELFHKIGTEKATAFDVEEIVKEIAATGDILLGTFVPETSEDADLVALLRQDLYETFEALNRFAQRESDTRFPVVADFAQAVVDLLTDDESTE | not soluble
MATSRFQAFLNSPIGPKTTHFWGPIANWGFVAAGLVDMQKPPEMISGNMSSAMCVYSALFMRFAWMVQPRNYLLLACHASNETVQLYQLSRWARAQGYLSSKKEEEKPSQ | not soluble
MGHHHHHHSHMATGTPESQARFGQSVKGLLTEKVTTCGTDVIALTKQVLKGSRSSELLGQAARNMVLQEDAILHSEDSLRKMAIITTHLQYQQEAIQKNVEQSSDLQDQLNHLLK | not soluble
